B1: Tropomodulin-1 (protein)
chain: MSYRRELEKYRDLDEDEILGALTEEELRTLENELDELDPDNALLPAGLRQKDQTTKAPTGPFKREELLDHLEKQAKEFKDREDLVPYTGEKRGKVWVPKQKPLDPVLESVTLEPELEEALANASDAELCDIAAILGMHTLMSNQQYYQALSSSSIMNKEGLNSVIKPTQYKPVPDEEPNSTDVEETLERIKNNDPKLEEVNLNNIRNIPIPTLKAYAEALKENSYVKKFSIVGTRSNDPVAYALAEMLKENKVLKTLNVESNFISGAGILRLVEALPYNTSLVEMKIDNQSQPLGNKVEMEIVSMLEKNATLLKFGYHFTQQGPRLRASNAMMNNNDLVRKRRLADLTGPIIPKCRSGV
modifications: 1 uM tropomyosin, filament seeds capped at barbed end by capping protein
B2: Tropomodulin-1 (protein)
chain: B1 chain
modifications: filament seeds capped at barbed end by capping protein
B3: Tropomodulin-1 ABS2 160-349 (protein)
chain: GLNSVIKPTQYKPVPDEEPNSTDVEETLERIKNNDPKLEEVNLNNIRNIPIPTLKAYAEALKENSYVKKFSIVGTRSNDPVAYALAEMLKENKVLKTLNVESNFISGAGILRLVEALPYNTSLVEMKIDNQSQPLGNKVEMEIVSMLEKNATLLKFGYHFTQQGPRLRASNAMMNNNDLVRKRRLADLTG
modifications: actin in complex with gelsolin segment 1, ATP
B4: Tropomodulin-1 ABS1 50-101 (protein)
chain: QKDQTTKAPTGPFKREELLDHLEKQAKEFKDREDLVPYTGEKRGKVWVPKQK
modifications: actin in complex with gelsolin segment 1, ATP

Assays:
[1] = target: actin filament pointed end (Oryctolagus cuniculus, UniProt P68135); test: pointed end elongation assay
actin (ATP-actin:GS1) = actin (ATP-actin:GS1) (Oryctolagus cuniculus, UniProt P68135); test: ITC

Row | Binder | Kd [1] [µM] | Kd (actin (ATP-actin:GS1)) [µM]
1 | B1 | 0.028 | 
2 | B2 | 0.108 | 
3 | B3 |  | 10.5
4 | B4 |  | 7.5
